“Also recorded” adds a separate entry of the source. Where two headings read alike, the source gives them in different places.
Assays:
OVCAR-8 = experiment: NCI60 in vitro screening, Ovarian Cancer; assay type: cell-based
OVCAR-4 = experiment: NCI60 in vitro screening, Ovarian Cancer; assay type: cell-based
A498 = experiment: NCI60 in vitro screening, Renal Cancer; assay type: cell-based
Rac1 = Rac1 and Cdc42 activity assay (pull-down); assay type: cell-based, human; conditions: A549 cells, GMI 4, 16 μg/ml 24 h, 10 ng/mL EGF 3 min
Protocol: (§1) A549 cells were seeded onto 100 mm plates and cultured to around 80% confluence. The cells were then treated with various doses of GMI (4, 16 μg/ml). […] A549 cells were pretreated with various concentrations of GMI for 24 h before being stimulated with 10 ng/mL EGF for 3 min. After that, cells were washed with cold PBS and lysated on the dish in RIPA buffer. Active GTP-bound Rac1 or Cdc42 was pulled down using the GST-PBD fusion protein of PAK1 immobilized on glutathione beads and active Rac1 and Cdc42 were detected with anti-Rac1 and anti-Cdc42 antibodies.
(§2) Active Rac1 and Cdc42 were determined by pull-down assay (Binker et al., 2009, Biochem Biophys Res Commun, 379, 445-450). Serum-starved A549 cells were or were not stimulated for 3 min with EGF and then collected in 800 μl of ice-cold lysis-buffer. Lysates were centrifuged to remove cellular debris. From each supernatant, 5 μl were taken out to measure protein content using Protein Assay Kit (Bio-Rad, Hercules, Calif.). Twenty μl were removed to determine total Rac1 in total lysate, and the remaining volume was used for the pull-down assay. Lysates containing equal amounts of proteins were then mixed with 15 μg of GST-PAK-PBD-beads (Pierce). Samples for total Rac1 and Cdc42 in total lysate and the pelleted beads were diluted in Laemmli sample-buffer and boiled. The proteins were separated using SDS-PAGE (12% gel). […]

Cdc42 = experiment: Rac1 and Cdc42 activity assay (pull-down); assay type: cell-based, human; conditions: A549 cells, GMI 4, 16 μg/ml 24 h, 10 ng/mL EGF 3 min
Protocol: as §1, §2

HL-60(TB) = assay type: cell-based
SK-MEL-28 = experiment: NCI60 in vitro screening, Melanoma; assay type: cell-based
NCI/ADR-RES = experiment: NCI60 in vitro screening, Ovarian Cancer; assay type: cell-based
HCT-116 = experiment: NCI60 in vitro screening, Colon Cancer; assay type: cell-based
SNB-19 = experiment: NCI60 in vitro screening, CNS Cancer; assay type: cell-based
T-47D = experiment: NCI60 in vitro screening, Breast Cancer; assay type: cell-based
RXF 393 = experiment: NCI60 in vitro screening, Renal Cancer; assay type: cell-based
UACC-62 = experiment: NCI60 in vitro screening, Melanoma; assay type: cell-based

B1: GMI: immunomodulatory protein from Ganoderma microsporum, amino acid sequence SEQ ID NO: 3, manufactured by Mycomagic Biotechnology Co., Ltd. (protein, listed as Ganoderma microsporum)
chain: MSDTALIFTLAWNVKQLAFDYTPNWGRGRPSSFIDTVTFPTVLTDKAYTYRVVVSGKDLGVRPSYAVESDGSQKINFLEYNSGYGIADTNTIQVYVIDPDTGNNFIVAQWN
TGI (OVCAR-8; OVCAR-8): >1.25E2
Percent Growth (OVCAR-8; OVCAR-8, Log10 Concentration 0.1): 99%
Percent Growth (OVCAR-8; OVCAR-8, Log10 Concentration 1.1): 91%
Percent Growth (OVCAR-8; OVCAR-8, Log10 Concentration 2.1): 31%
Percent Growth (OVCAR-8; OVCAR-8, Log10 Concentration −0.9): 95%
Percent Growth (OVCAR-8; OVCAR-8, Log10 Concentration −1.9): 98%
Growth Percent (OVCAR-8; OVCAR-8, one dose): 76.68%
GI50 (OVCAR-8; OVCAR-8, in µg/mL): 6.00E1
TGI (OVCAR-4; OVCAR-4): >1.25E2
Percent Growth (OVCAR-4; OVCAR-4, Log10 Concentration 0.1): 102%
Percent Growth (OVCAR-4; OVCAR-4, Log10 Concentration 1.1): 107%
Percent Growth (OVCAR-4; OVCAR-4, Log10 Concentration 2.1): 62%
Percent Growth (OVCAR-4; OVCAR-4, Log10 Concentration −0.9): 102%
Percent Growth (OVCAR-4; OVCAR-4, Log10 Concentration −1.9): 103%
Growth Percent (OVCAR-4; OVCAR-4, one dose): 98.08%
TGI (A498; A498): 7.07E1
Percent Growth (A498; A498, Log10 Concentration 0.1): 114%
Percent Growth (A498; A498, Log10 Concentration 1.1): 108%
Percent Growth (A498; A498, Log10 Concentration 2.1): −35%
Percent Growth (A498; A498, Log10 Concentration −0.9): 102%
Percent Growth (A498; A498, Log10 Concentration −1.9): 107%
Growth Percent (A498; A498, one dose): 98.16%
GI50 (A498; A498, in µg/mL): 3.17E1
EGF-promoted Rac1 activity (Rac1): little effect on Rac1; also recorded: little reduction in Rac1 activity
EGF-promoted Cdc42 activity (Cdc42): inhibits Cdc42 activation; also recorded: reduced EGF-promoted Cdc42 activity in a dose-dependent manner
TGI (HL-60(TB)): >1.25E2
Percent Growth (HL-60(TB); Log10 Concentration 0.1): 105%
Percent Growth (HL-60(TB); Log10 Concentration 1.1): 105%
Percent Growth (HL-60(TB); Log10 Concentration 2.1): 92%
Percent Growth (HL-60(TB); Log10 Concentration −0.9): 99%
Percent Growth (HL-60(TB); Log10 Concentration −1.9): 100%
Growth Percent (HL-60(TB); one dose): 116.48%
TGI (SK-MEL-28; SK-MEL-28): >1.25E2
Percent Growth (SK-MEL-28; SK-MEL-28, Log10 Concentration 0.1): 110%
Percent Growth (SK-MEL-28; SK-MEL-28, Log10 Concentration 1.1): 98%
Percent Growth (SK-MEL-28; SK-MEL-28, Log10 Concentration 2.1): 72%
Percent Growth (SK-MEL-28; SK-MEL-28, Log10 Concentration −0.9): 103%
Percent Growth (SK-MEL-28; SK-MEL-28, Log10 Concentration −1.9): 98%
Growth Percent (SK-MEL-28; SK-MEL-28, one dose): 106.96%
TGI (NCI/ADR-RES): >1.25E2
Percent Growth (NCI/ADR-RES; Log10 Concentration 0.1): 105%
Percent Growth (NCI/ADR-RES; Log10 Concentration 1.1): 81%
Percent Growth (NCI/ADR-RES; Log10 Concentration 2.1): 19%
Percent Growth (NCI/ADR-RES; Log10 Concentration −0.9): 100%
Percent Growth (NCI/ADR-RES; Log10 Concentration −1.9): 102%
GI50 (NCI/ADR-RES; in µg/mL): 3.94E1
TGI (HCT-116; HCT-116): >1.25E2
Percent Growth (HCT-116; HCT-116, Log10 Concentration 0.1): 101%
Percent Growth (HCT-116; HCT-116, Log10 Concentration 1.1): 103%
Percent Growth (HCT-116; HCT-116, Log10 Concentration 2.1): 104%
Percent Growth (HCT-116; HCT-116, Log10 Concentration −0.9): 105%
Percent Growth (HCT-116; HCT-116, Log10 Concentration −1.9): 98%
Growth Percent (HCT-116; HCT-116, one dose): 101.77%
TGI (SNB-19; SNB-19): 4.27E1
Percent Growth (SNB-19; SNB-19, Log10 Concentration 0.1): 95%
Percent Growth (SNB-19; SNB-19, Log10 Concentration 1.1): 66%
Percent Growth (SNB-19; SNB-19, Log10 Concentration 2.1): −58%
Percent Growth (SNB-19; SNB-19, Log10 Concentration −0.9): 98%
Percent Growth (SNB-19; SNB-19, Log10 Concentration −1.9): 98%
Growth Percent (SNB-19; SNB-19, one dose): 58.70%
GI50 (SNB-19; SNB-19, in µg/mL): 1.69E1
LC50 (SNB-19; SNB-19, in µg/mL): 1.08E2
TGI (T-47D): >1.25E2
Percent Growth (T-47D; Log10 Concentration 0.1): 88%
Percent Growth (T-47D; Log10 Concentration 1.1): 43%
Percent Growth (T-47D; Log10 Concentration 2.1): 13%
Percent Growth (T-47D; Log10 Concentration −0.9): 96%
Percent Growth (T-47D; Log10 Concentration −1.9): 101%
GI50 (T-47D; in µg/mL): 8.63E0
Growth Percent (T-47D; one dose): 28.25%
TGI (RXF 393; RXF 393): 4.72E1
Percent Growth (RXF 393; RXF 393, Log10 Concentration 0.1): 101%
Percent Growth (RXF 393; RXF 393, Log10 Concentration 1.1): 76%
Percent Growth (RXF 393; RXF 393, Log10 Concentration 2.1): −56%
Percent Growth (RXF 393; RXF 393, Log10 Concentration −0.9): 101%
Percent Growth (RXF 393; RXF 393, Log10 Concentration −1.9): 101%
Growth Percent (RXF 393; RXF 393, one dose): 38.93%
GI50 (RXF 393; RXF 393, in µg/mL): 1.97E1
LC50 (RXF 393; RXF 393, in µg/mL): 1.13E2
TGI (UACC-62; UACC-62): >1.25E2
Percent Growth (UACC-62; UACC-62, Log10 Concentration 0.1): 99%
Percent Growth (UACC-62; UACC-62, Log10 Concentration 1.1): 106%
Percent Growth (UACC-62; UACC-62, Log10 Concentration 2.1): 68%
Percent Growth (UACC-62; UACC-62, Log10 Concentration −0.9): 101%
Percent Growth (UACC-62; UACC-62, Log10 Concentration −1.9): 105%
Growth Percent (UACC-62; UACC-62, one dose): 115.96%

Reference: patent US9018171B2, “Uses of an immunomodulatory protein (GMI) from Ganoderma microsporum” (Mycomagic Biotechnology Co., Ltd., priority 2010, dated 2015)
